According to the nanobody polyreactivity screen of Harvey et al. (2022):

Assay: yeast display, Sf9 membrane polyspecificity reagent, FACS + sequencing; frameworks hold sequencing errors
Method in brief: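 Galactose-induced (36–48 hours) yeast carrying a synthetic nanobody display library were exposed to 10% biotinylated, detergent-solubilized Sf9 membrane reagent at 4 °C for 1 hour. FACS followed streptavidin microbead enrichment, using low and high (top ~1%) gates for expression (anti-HA) and reagent binding (streptavidin). Colony PCR, MiSeq 2 × 250 sequencing and CDR-length filtering followed. Labels for polyreactivity reflect the gate of origin.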

QVQLVESGGGLVQAGGSLRLSCAASGSTFFVYDMGWYRQAPGKEREMVAAISISDGGTYYADSVKWRFTISRDNAKNYVYLQMNSLKPEDTAVYYCADDYSERYFRGYVYLGQGTQVTVSS
polyreactivity (PSR sort gate): low polyreactivity

QVQLVESGGGLVQAGGSLRLSCAASGSIFGQYAMGWYRQAPGKERELVAAISTRGGSTRYADSVKGRFTISRDNAKNTVYLQMNSLKPEDTAVYYCAARVPYIRHLAVDYWGQGTQVTVSS
polyreactivity (PSR sort gate): high polyreactivity

QVQHVESGGGLVQAGGSLRLSCAAYGSTFGVNAMGWYRQAPGKEREFVAAITWSSTSTYYADSVKGRFTISRDNAKNTVYLQMNSLKPEDTAVYYCAARQRIYRHYAYGYWGQGTQLTVSS
polyreactivity (PSR sort gate): high polyreactivity

QFQLVESGRGLVQAVGSHRLRCAASGSILLKYAMGWYRQATGKEMELVAAITYRGASTHYADSVKGRFTISRDNAKNTVYLQMNSLKPEDTAVYYCAARGWVYYASEMDYWGQGTQVTVSS
polyreactivity (PSR sort gate): low polyreactivity

QVQLVESGGGLVQAGGSLRLSCAASGSTFYVYAMGWYRQAPGKERELVAAITVRGGSTYYADSVKGRFTISRDNAKKTVYLQMNSLKPEDTAVYYCNAEGTYGYWRSYNYWGQGTQVTVSS
polyreactivity (PSR sort gate): high polyreactivity

QVQLVESGGGLVQAGGSLRLSCAASGLIFRFNAMGWYRQAPGKERELVAAITRAGSTYYADSVKGRFTISRDNAKNTVYLQMNSLKPEDTAVYYCAAGQYRLPQRGYGYWGQGTQVTVSS
polyreactivity (PSR sort gate): high polyreactivity

QVQLVESGGGLVLAGGSLRLSCAASGRTFVPYAMGWYRQAPGKERELVAAMSQSGGRTYYTDSVKGRFTISGETAKNTVYLQMNSLNPEDTAVYYCAADVRSSIGHFTLYDYWGQGTQVTVSS
polyreactivity (PSR sort gate): high polyreactivity

QVQLVGSGGGLVQAGSSLRLTCAASGLIFTYYAMGWYRQAPGKEREFVAVIDSSGDSTNYADSVKGRFTISRDNAKNTVYLQMNSLKPEDTAVYYCNAYNWSYIYFPFVQEYRTYDYWGQGTQVTVSS
polyreactivity (PSR sort gate): low polyreactivity

QVQLVESGGGIVQAGGSLRLSCAASGNIFGGYAMGWYRQAPGKERELVAAISQRGGITYYADSVKGRFTISRDNAKNTVYLQMNSLKPEDTAVFYCAKRGPYGWYGAYDYWGQGTQVTVSS
polyreactivity (PSR sort gate): low polyreactivity

QVQLVESGGGLVQAGGSLRLSCAASGLTFYYYDMGWYRQAPGKERELVAAITSGGSSTYYADSVKGRITISRDNAKNTVYLQMNSLKPEDTAVYYCNADSPYIPYIYDYWGQGTQVTVSS
polyreactivity (PSR sort gate): low polyreactivity

QVQLVDSGGGLVQAGGSLRLSCAASGIIFSDYAMGWYRKAPGIERELVAAISRNGGSTYYADSVKGRFTISRDIAKYTVYLQMNSLKPEDTAVYYCAATRRYRYNWGQGTQVTVSS
polyreactivity (PSR sort gate): high polyreactivity

QVQLVESGGGLVQAGGSLRLSCADSGITFYRYAMGWYRQAPGKERELVATITSSGGRTYYADSVKGRFTISRDNAKNTVYLQLNSLKPEDTAVYYSAAGKFSYRVYYQFRGGNYWGQGTQVTVSS
polyreactivity (PSR sort gate): high polyreactivity

QVQLVESGGGLVKAGGSLRLSCAASGLTFTRYTMGWYRQAPGKERELVAAITSSGGSTYYADSVKGRFTISRDNAKNTVYLQRNSVKPEDTAVYYCAAPYPGTRGDGYWGLGTQVTVSS
polyreactivity (PSR sort gate): high polyreactivity

QVQLVESGGGLVQAGGSLRLSCAASGITFFWNAMGWYRQAPGKERELVAAISSGAGTTYADSVKGRFTISRDNAKNTVYLQMNSLKPEDTAVYYCAARRYRYAYGPYNYWGQGTQVTVSS
polyreactivity (PSR sort gate): low polyreactivity

QVQLVESGGGLVQAGGSLRLSCAASGSTFSYYAMGWYRQAPGKERDLVASIDGSTGSTYYADSVKGRFTISRDNAKTTVYLQMNILKPEDTAVYYFNAESLDYYDNAYEYWGQGTQVTVSS
polyreactivity (PSR sort gate): low polyreactivity

QVQLVESGGGLVQAGGSLRLSCAASGSIFAGNVMGWYRQAPGKERELVAAISRRGGRTYYADSVKGRFTISRDNAKNTVYLQMNSLKPEDTAVYYCAARRDPVLGKSDYWGQGTQVTVSS
polyreactivity (PSR sort gate): high polyreactivity

QVQLVESGGGLVQAGGSLRLSCAASGSIFPYNVMGWYRQAPGKERELVAAITTGGRTNYADSVKGRFTISRDNAKNTVYLQMNSLKPEDTAVYYCAARYGYYDSRRWYYYWGQGTQVTVSS
polyreactivity (PSR sort gate): high polyreactivity

QVQLVESGGGLVQAGGSLRLSCAASGRIFHKYTMGRYRQAPGKERELVAAISFSTGNTFYADSVKGRFTISRDTANNTVFLQMNSLKPEDTAVYYCATDVLYPDYDYWGQGTQVTVSS
polyreactivity (PSR sort gate): low polyreactivity

QVQLVESGGGLVQAGGTLRLSCAASGFTFGFKAMGWYRQAPGKEREFVASITYRGGSTYYADSVKGRFTISRDNAKNSVYLQMNSLKPEDTAVYFCATVSTRLRDYWGQGTQVTVSS
polyreactivity (PSR sort gate): high polyreactivity

QVQLVESGGGLVQAGGSLRLSCAASGFTAYGYAMGWYRQAPGQERELVAAISRSGGSTYYADSVKGRFTISRDNAKNTVYLQMYSLKPDDTAVYYCAVAVGREYVYRYYYWGQGTQVTVSS
polyreactivity (PSR sort gate): high polyreactivity

QVQLVESGGGLVQAGGSLRLSCAASGRTFFSFNAMGWYRQAPGKERELVAAIDGDGGITYYADSVKGRFTISRDNAKNTVYLQMNSLKPEDTAVYYCAAETLFSYAGEDDYWGQGTQVTVSS
polyreactivity (PSR sort gate): low polyreactivity

QVQLVESGGGLVQAGGSLRLICAASGFTFASNDMGWYRQAPGKERELVAAITKGGGRTYYADSVKGRFTISRDNAKNTVYFQMNSLKPEETAVYYCAGRQLIKYDYWGQGTQVTVSS
polyreactivity (PSR sort gate): low polyreactivity
